Test results as given in paper PMC3711744 (The Journal of neuroscience : the official journal of the …, 2013).
Read-outs that look alike come from different tables or passages of the source. Each block holds one binder with its values, some of them ahead of it.

Columns and labels:
Assay in all cases: pull-down
[1] = target: T1, His-tagged CaMKIIα-FL(M1-H478) (UniProt P11275 1-478)
GST-CaMKIIα-FL(M1-H478) = GST-CaMKIIα-FL(M1-H478) (UniProt P11275 1-478)
[2] = target: T1, His-tagged CaMKIIα-FL(M1-H478); remark: listed apart in the source
[3] = target: T286-autophosphorylated CaMKIIα (UniProt P11275 1-478, phosphothreonine at 286 (autophosphorylation))
Chain of T286-autophosphorylated CaMKIIα (P11275 whole entry): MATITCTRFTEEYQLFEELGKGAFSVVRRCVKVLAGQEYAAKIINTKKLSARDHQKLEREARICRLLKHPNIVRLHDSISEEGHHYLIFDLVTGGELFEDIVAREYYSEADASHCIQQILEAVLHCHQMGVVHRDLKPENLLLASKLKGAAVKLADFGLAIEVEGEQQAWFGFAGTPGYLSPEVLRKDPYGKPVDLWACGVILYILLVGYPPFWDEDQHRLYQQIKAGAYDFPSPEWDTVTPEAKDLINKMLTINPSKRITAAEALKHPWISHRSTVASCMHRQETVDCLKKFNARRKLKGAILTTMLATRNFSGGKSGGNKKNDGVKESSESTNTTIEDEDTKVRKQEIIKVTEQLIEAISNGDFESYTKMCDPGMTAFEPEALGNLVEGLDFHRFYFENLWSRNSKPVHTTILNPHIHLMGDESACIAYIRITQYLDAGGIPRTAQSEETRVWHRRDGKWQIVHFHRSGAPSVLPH

T1 sequence (P11275 whole entry): as above
Chain of GST-CaMKIIα-FL(M1-H478) (P11275 whole entry): as above

- binding result [1]: binds
B1: GST-mGluR1a-CT-FL(K841-L1199) (domain or fragment, rat, UniProt P23385 841-1199, looked up)
chain: KPERNVRSAFTTSDVVRMHVGDGKLPCRSNTFLNIFRRKKPGAGNANSNGKSVSWSEPGGRQAPKGQHVWQRLSVHVKTNETACNQTAVIKPLTKSYQGSGKSLTFSDASTKTLYNVEEEDNTPSAHFSPPSSPSMVVHRRGPPVATTPPLPPHLTAEETPLFLADSVIPKGLPPPLPQQQPQQPPPQQPPQQPKSLMDQLQGVVTNFGSGIPDFHAVLAGPGTPGNSLRSLYPPPPPPQHLQMLPLHLSTFQEESISPPGEDIDDDSERFKLLQEFVYEREGNTEEDELEEEEDLPTASKLTPEDSPALTPPSPFRDSVASGSSVPSSPVSESVLCTPPNVTYASVILRDYKQSSSTL

- binding result (GST-CaMKIIα-FL(M1-H478)): binds
B2: purified mGluR1a-CT (domain or fragment, rat, UniProt P23385 841-1199, looked up)
chain: B1 chain

- binding result [2]: binds
Binder: KLPCRSNTFLNIFR [mGluR1a-i (14-amino acid interfering peptide)]

- binding result [1]: binds
Binder: KPERNVRSAFTTSDVVRMHVGDGKLPCRSNTFLNIFRRKKPGAGN (domain or fragment, rat, UniProt P23385 841-885, looked up) [GST-mGluR1a-CT1a(K841-N885)]

- binding result [3]: binds
- binding result [2]: binds
B3: GST-mGluR1a-CT1(K841-T1000) (domain or fragment, rat, UniProt P23385 841-1000, looked up)
chain: KPERNVRSAFTTSDVVRMHVGDGKLPCRSNTFLNIFRRKKPGAGNANSNGKSVSWSEPGGRQAPKGQHVWQRLSVHVKTNETACNQTAVIKPLTKSYQGSGKSLTFSDASTKTLYNVEEEDNTPSAHFSPPSSPSMVVHRRGPPVATTPPLPPHLTAEET
